The assay has as its target T1, human transferrin receptor (recombinant, for surface plasmon resonance) (human, UniProt P02786 89-760).
T1 construct: also called huTfR; human transferrin receptor-biotinylated
As to the kind of experiment: SPR 25C.

For 33 molecules, koff results are on record in US20180291110A1 (Hoffmann-La Roche, published 2018).

Numbering of substitutions follows the chain as printed.

Usually koff stands for the first-order rate constant of dissociation.

T1 sequence (P02786 89-760 limits assumed): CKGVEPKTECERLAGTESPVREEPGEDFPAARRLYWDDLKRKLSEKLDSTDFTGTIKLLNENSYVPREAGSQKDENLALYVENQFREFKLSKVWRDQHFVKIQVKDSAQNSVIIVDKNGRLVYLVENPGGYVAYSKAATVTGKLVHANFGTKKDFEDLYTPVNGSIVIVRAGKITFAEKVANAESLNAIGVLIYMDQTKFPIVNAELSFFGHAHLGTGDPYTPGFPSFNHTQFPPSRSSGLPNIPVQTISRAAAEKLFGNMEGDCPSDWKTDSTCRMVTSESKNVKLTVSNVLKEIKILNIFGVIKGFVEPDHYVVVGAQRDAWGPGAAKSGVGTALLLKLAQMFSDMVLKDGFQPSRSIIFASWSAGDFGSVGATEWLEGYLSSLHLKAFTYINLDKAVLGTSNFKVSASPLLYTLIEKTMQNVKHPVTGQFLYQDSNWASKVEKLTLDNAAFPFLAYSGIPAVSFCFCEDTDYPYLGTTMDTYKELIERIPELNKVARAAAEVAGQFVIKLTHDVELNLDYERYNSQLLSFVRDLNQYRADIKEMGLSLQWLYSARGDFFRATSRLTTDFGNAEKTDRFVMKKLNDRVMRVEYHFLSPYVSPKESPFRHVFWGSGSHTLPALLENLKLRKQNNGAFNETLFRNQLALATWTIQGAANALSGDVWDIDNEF

B1: 2/99 VH0(rb)/VL9-NYA (antibody, V domains shown)
VH: QSMEESGGRLVTPGTPLTLTCTVSGFSLSSYAMSWVRQAPGKGLEWIGYIWSGGSTDYASWAKGRFTISKTSTTVDLKITSPTTEDTATYFCARRYGTSYPDYGDANGFDPWGPGTLVTVSS
VL: AIQLTQSPSSLSASVGDRVTITCRASQSISSYLAWYQQKPGKAPKLLIYRASTLASGVPSRFSGSGSGTDFTLTISSLQPEDFATYYCQQNYASSNVDNTFGGGTKVEI
Turning to B1, the koff is 0.00141 s⁻¹.

B2: 2/99 VH23-DANG/VL8 (antibody, V domains shown)
VH: QSMQESGPGLVKPSQTLSLTCTVSGFSLSSYAMSWIRQHPGKGLEWIGYIWSGGSTDYASWAKSRVTISKTSTTVSLKLSSVTAADTAVYYCARRYGTSYPDYGDANGFDPWGQGTLVTVSS
VL: AYQLTQSPSSLSASVGDRVTITCRASQSISSYLSWYQQKPGKAPKLLIYRASTLASGVPSRFSGSGSGTDFTLTISSLQPEDFATYYCQQSYSSSNVDNTFGGGTKVEIK
With B2, the koff worked out at 0.000941 s⁻¹.

B3: 2/99 VH15/VL12 (antibody, V domains shown)
VH: QQLQESGPGLVKPSETLSLTCTVSGFSLSSYAMSWVRQPPGKGLEWIGYIWSGGSTDYNPSLKSRVTISVDTSKNQVSLKLSSVTAADTAVYYCARRYGTSYPDYGDANGFDPWGQGTLVTVSS
VL: B2 VL with A1D, Y2I, L4M, S34A, G66R, S91H
On to B3, for which the koff worked out at 0.00764 s⁻¹.

B4: 2/99 VH18/VL10 (antibody, V domains shown)
VH: QVQLQESGPGLVKPSQTLSLTCTVSGFSLSSYAMSWIRQHPGKGLEWIGYIWSGGSTDYAPSLKSRVTISVDTSKNQFSLKLSSVTAADTAVYYCARRYGTSYPDYGDANGFDPWGQGTLVTVSS
VL: B2 VL with A1D, Y2I, L4M, G66R
Take B4: the koff was found to be 0.00746 s⁻¹.

B5: 2/99 VH12/VL10 (antibody, V domains shown)
VH: B4 VH with Q16E, H40P, A60N
VL: B2 VL with A1D, Y2I, L4M, G66R
As to B5, the koff amounted to 0.00779 s⁻¹.

B6: 2/99 VH16/VL10 (antibody, V domains shown)
VH: B3 VH with Q116P
VL: B2 VL with A1D, Y2I, L4M, G66R
Take B6: the off-rate constant (koff) was found to be 0.00424 s⁻¹.

B7: 2/99 VH5/VL10 (antibody, V domains shown)
VH: QSMEETGGGLIQPGGSLRLSCAASGFSLSSYAMSWVRQAPGKGLEWVGYIWSGGSTDYADSVKGRFTISRDNSKNTLYLQMNSLRAEDTAVYYCARRYGTSYPDYGDANGFDPWGPGTLVTVSS
VL: B2 VL with A1D, Y2I, L4M, G66R
Turning to B7, the off-rate constant (koff) was 0.00653 s⁻¹.

B8: 2/99 VH2/VL12 (antibody, V domains shown)
VH: EVQLVETGGGLIQPGGSLRLSCAASGFSLSSYAMSWVRQAPGKGLEWVGYIWSGGSTDYADSVKGRFTISRDNSKNTLYLQMNSLRAEDTAVYYCARRYGTSYPDYGDANGFDPWGQGTLVTVSS
VL: B2 VL with A1D, Y2I, L4M, S34A, G66R, S91H
Regarding B8, the off-rate (koff) was found to be 0.00814 s⁻¹.

B9: 2/99 VH1/VL12 (antibody, V domains shown)
VH: B7 VH with Q1V, S2Q, M3L, E4V, P116Q
VL: B2 VL with A1D, Y2I, L4M, S34A, G66R, S91H
In the case of B9, the koff came out at 0.00705 s⁻¹.

B10: 2/99 VH22/VL10 (antibody, V domains shown)
VH: B3 VH with Q2S, L3M, E15Q, P39H, N59A, P60S, S61W, L62A
VL: B2 VL with A1D, Y2I, L4M, G66R
On to B10, for which the off-rate constant (koff) is 0.00209 s⁻¹.

B11: 2/99 VH20/VL10 (antibody, V domains shown)
VH: B3 VH with Q2S, L3M, E15Q, V36I, P39H, N59A
VL: B2 VL with A1D, Y2I, L4M, G66R
As for B11, the koff turned out to be 0.00705 s⁻¹.

B12: 2/99 VH7/VL12 (antibody, V domains shown)
VH: B7 VH with S2Q, M3L, E4V, V47I, D60S, S61W, V62A, P116Q
VL: B2 VL with A1D, Y2I, L4M, S34A, G66R, S91H
Take B12: the koff worked out at 0.00775 s⁻¹.

B13: 2/99 VH5/VL12 (antibody, V domains shown)
VH: B7 VH
VL: B2 VL with A1D, Y2I, L4M, S34A, G66R, S91H
On to B13, for which the koff stood at 0.001 s⁻¹.

B14: 2/99 VH13/VL12 (antibody, V domains shown)
VH: B4 VH with Q16E, H40P, A60N, F78V
VL: B2 VL with A1D, Y2I, L4M, S34A, G66R, S91H
As for B14, the koff turned out to be 0.00785 s⁻¹.

B15: 2/99 VH15/VL10 (antibody, V domains shown)
VH: B3 VH
VL: B2 VL with A1D, Y2I, L4M, G66R
For B15, the koff was 0.00399 s⁻¹.

B16: 2/99 VH11/VL12 (antibody, V domains shown)
VH: B7 VH with S2Q, M3L, E4L, T6S, I11V, P116Q
VL: B2 VL with A1D, Y2I, L4M, S34A, G66R, S91H
Take B16: the dissociation rate constant (koff) is 0.00787 s⁻¹.

B17: 2/99 VH7/VL10 (antibody, V domains shown)
VH: B7 VH with S2Q, M3L, E4V, V47I, D60S, S61W, V62A, P116Q
VL: B2 VL with A1D, Y2I, L4M, G66R
As to B17, the dissociation rate constant (koff) is 0.00264 s⁻¹.

B18: 2/99 VH9/VL12 (antibody, V domains shown)
VH: B7 VH with S2Q, M3L, E4L, T6S, I11V, S27T, L28F, R96K, P116Q
VL: B2 VL with A1D, Y2I, L4M, S34A, G66R, S91H
As to B18, the off-rate (koff) is 0.001 s⁻¹.

B19: 2/99 VH8/VL12 (antibody, V domains shown)
VH: QQLVETGGGLIQPGGSLRLSCAASGFSLSSYAMSWVRQAPGKGLEWIGYIWSGGSTDYASWAKGRFTISKTSTTLYLQMNSLRAEDTAVYYCARRYGTSYPDYGDANGFDPWGQGTLVTVSS
VL: B2 VL with A1D, Y2I, L4M, S34A, G66R, S91H
Consider B19, for which the koff turned out to be 0.00672 s⁻¹.

B20: 2/99 VH11/VL10 (antibody, V domains shown)
VH: B7 VH with S2Q, M3L, E4L, T6S, I11V, P116Q
VL: B2 VL with A1D, Y2I, L4M, G66R
B20: the koff was found to be 0.00716 s⁻¹.

B21: 2/99 VH21/VL10 (antibody, V domains shown)
VH: B3 VH with Q2S, L3M, E15Q, V36I, P39H, N59A, P60S, S61W, L62A
VL: B2 VL with A1D, Y2I, L4M, G66R
As for B21, the koff amounted to 0.00211 s⁻¹.

B22: 2/99 VH6/VL12 (antibody, V domains shown)
VH: B7 VH with S2Q, M3L, E4V, V47I, P116Q
VL: B2 VL with A1D, Y2I, L4M, S34A, G66R, S91H
B22: the off-rate constant (koff) came to 0.00778 s⁻¹.

B23: 2/99 VH16/VL12 (antibody, V domains shown)
VH: B3 VH with Q116P
VL: B2 VL with A1D, Y2I, L4M, S34A, G66R, S91H
B23: the off-rate (koff) was 0.00754 s⁻¹.

B24: 2/99 VH9/VL10 (antibody, V domains shown)
VH: B7 VH with S2Q, M3L, E4L, T6S, I11V, S27T, L28F, R96K, P116Q
VL: B2 VL with A1D, Y2I, L4M, G66R
As to B24, the koff amounted to 0.00719 s⁻¹.

B25: 2/99 VH1/VL10 (antibody, V domains shown)
VH: B7 VH with Q1V, S2Q, M3L, E4V, P116Q
VL: B2 VL with A1D, Y2I, L4M, G66R
As to B25, the dissociation rate constant (koff) turned out to be 0.00677 s⁻¹.

B26: 2/99 VH23-DANG/VL10 (antibody, V domains shown)
VH: B2 VH
VL: B2 VL with A1D, Y2I, L4M, G66R
B26: the koff is 0.0012 s⁻¹.

B27: 2/99 VH6/VL10 (antibody, V domains shown)
VH: B7 VH with S2Q, M3L, E4V, V47I, P116Q
VL: B2 VL with A1D, Y2I, L4M, G66R
Regarding B27, the koff worked out at 0.00455 s⁻¹.

B28: 2/99 VH19/VL10 (antibody, V domains shown)
VH: B3 VH with Q2S, L3M, E15Q, V36I, P39H, N59A, V77F
VL: B2 VL with A1D, Y2I, L4M, G66R
As to B28, the koff worked out at 0.001 s⁻¹.

B29: 2/99 VH13/VL10 (antibody, V domains shown)
VH: B4 VH with Q16E, H40P, A60N, F78V
VL: B2 VL with A1D, Y2I, L4M, G66R
For the molecule B29, the off-rate (koff) came out at 0.00589 s⁻¹.

B30: 2/99 VH17/VL10 (antibody, V domains shown)
VH: B3 VH with V70K, Q116P
VL: B2 VL with A1D, Y2I, L4M, G66R
With B30, the off-rate constant (koff) turned out to be 0.00188 s⁻¹.

B31: 2/99 VH12/VL12 (antibody, V domains shown)
VH: B4 VH with Q16E, H40P, A60N
VL: B2 VL with A1D, Y2I, L4M, S34A, G66R, S91H
B31: the off-rate constant (koff) is 0.001 s⁻¹.

B32: 2/99 VH8/VL10 (antibody, V domains shown)
VH: B19 VH
VL: B2 VL with A1D, Y2I, L4M, G66R
As for B32, the off-rate (koff) stood at 0.00173 s⁻¹.

B33: 2/99 VH2/VL10 (antibody, V domains shown)
VH: B8 VH
VL: B2 VL with A1D, Y2I, L4M, G66R
As for B33, the koff came to 0.00649 s⁻¹.
